# Reference: patent publication US20210246166A1 (Bayer, published 2021)
# Numbered stars: 1 amine (or outer) side, 2 acyl side, 3 side chain; on linkers, the order of the positions; unused ones are H or OH. Bridge positions count the residues as written; N and C are the ends. Square brackets hold non-standard residues; d marks the D form. Primed or numbered codes have the meaning given here. Ends that are not written are not given here. TTDS = 1,13-diamino-4,7,10-trioxatridecan-succinamic acid, O=C(CCC(=O)[*:2])NCCCOCCOCCOCCCN[*:1]; PEG9(31 atoms) = 1-amino-3,6,9,12,15,18,21,24,27-nonaoxatriacontan-30-oic acid; Oic = O=C(O)[C@@H]1C[C@@H]2CCCC[C@@H]2N1; Pro‑D2″ = L-Proline (3,4-2H), deuterated; PEG6 = NCCOCCOCCOCCOCCOCCOCCC(=O)O; NMeI = CC[C@H](C)[C@H](NC)C(=O)O; tBuAla = CC(C)(C)C[C@H](N)C(=O)O; PEG5 = NCCOCCOCCOCCOCCOCCC(=O)O; Pen = CC(C)(S)[C@H](N)C(=O)O; NMeA = CN[C@@H](C)C(=O)O; Orn = NCCC[C@H](N)C(=O)O; Abu = CC[C@H](N)C(=O)O; Sar = CNCC(=O)O
# T1: recombinant human MASP1 active protease (amino acids 297-699, C-terminal His Tag) (human, UniProt P48740 297-699)
# T1 sequence: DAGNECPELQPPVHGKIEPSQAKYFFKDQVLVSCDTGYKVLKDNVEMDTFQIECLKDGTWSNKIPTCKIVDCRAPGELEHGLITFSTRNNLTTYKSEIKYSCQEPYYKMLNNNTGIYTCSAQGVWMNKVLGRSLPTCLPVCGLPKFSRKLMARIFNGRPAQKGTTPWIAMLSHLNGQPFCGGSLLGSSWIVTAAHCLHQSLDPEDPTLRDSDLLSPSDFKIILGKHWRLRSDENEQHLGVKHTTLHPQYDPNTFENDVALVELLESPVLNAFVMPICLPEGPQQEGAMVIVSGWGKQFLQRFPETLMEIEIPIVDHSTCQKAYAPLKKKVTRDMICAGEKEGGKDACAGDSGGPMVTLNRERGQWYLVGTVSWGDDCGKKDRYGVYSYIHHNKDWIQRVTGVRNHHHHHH
# B1: ((N-Me)A)-IC+SRSLP-(Oic)-I-(Pen)+IPQ-NH2 (peptide)
# peptide: [NMeA]ICSRSLP[Oic]I[Pen]IPQ-NH2
# modifications: disulfide 3-11; N-terminus assumed
# SMILES: CC[C@H](C)[C@H](NC(=O)[C@H](C)NC)C(=O)N[C@H]1CSSC(C)(C)[C@@H](C(=O)N[C@H](C(=O)N2CCC[C@H]2C(=O)N[C@@H](CCC(N)=O)C(N)=O)[C@@H](C)CC)NC(=O)[C@H]([C@@H](C)CC)NC(=O)[C@@H]2C[C@@H]3CCCC[C@@H]3N2C(=O)[C@@H]2CCCN2C(=O)[C@H](CC(C)C)NC(=O)[C@H](CO)NC(=O)[C@H](CCCNC(=N)N)NC(=O)[C@H](CO)NC1=O
# B2: AIC+SRSL-(Pro-D2)-(Oic)-I-(Pen)+IPD-OH (peptide)
# peptide: AICSRSL[Pro‑D2″][Oic]I[Pen]IPD-OH
# modifications: disulfide 3-11
# B3: (Orn)-IC+SRS-((tBu)A)-PPI-(Pen)+IP-OH (peptide)
# peptide: [Orn]ICSRS[tBuAla]PPI[Pen]IP-OH
# modifications: disulfide 3-11; N-terminus assumed
# SMILES: CC[C@H](C)[C@H](NC(=O)[C@@H](N)CCCN)C(=O)N[C@H]1CSSC(C)(C)[C@@H](C(=O)N[C@H](C(=O)N2CCC[C@H]2C(=O)O)[C@@H](C)CC)NC(=O)[C@H]([C@@H](C)CC)NC(=O)[C@@H]2CCCN2C(=O)[C@@H]2CCCN2C(=O)[C@H](CC(C)(C)C)NC(=O)[C@H](CO)NC(=O)[C@H](CCCNC(=N)N)NC(=O)[C@H](CO)NC1=O
# B4: TIC+SRS-((tBu)A)-PPI-(Pen)+IPD-NH2 (peptide)
# peptide: TICSRS[tBuAla]PPI[Pen]IPD-NH2
# modifications: disulfide 3-11; N-terminus assumed
# SMILES: CC[C@H](C)[C@H](NC(=O)[C@@H](N)[C@@H](C)O)C(=O)N[C@H]1CSSC(C)(C)[C@@H](C(=O)N[C@H](C(=O)N2CCC[C@H]2C(=O)N[C@@H](CC(=O)O)C(N)=O)[C@@H](C)CC)NC(=O)[C@H]([C@@H](C)CC)NC(=O)[C@@H]2CCCN2C(=O)[C@@H]2CCCN2C(=O)[C@H](CC(C)(C)C)NC(=O)[C@H](CO)NC(=O)[C@H](CCCNC(=N)N)NC(=O)[C@H](CO)NC1=O
# B5: (2-(Diethylamino)acetyl)-IC+SRS-((tBu)A)-PPI-(Pen)+IPD-NH2 (peptide)
# peptide: [2‑(Diethylamino)acetyl]ICSRS[tBuAla]PPI[Pen]IPD-NH2
# modifications: disulfide 3-11
# B6: ((N-Me)G)-IC+SRSLP-(Oic)-I-(Pen)+IP-(PEG9(31 atoms))-NH2 (peptide)
# peptide: [Sar]ICSRSLP[Oic]I[Pen]IP[PEG9(31 atoms)]-NH2
# modifications: disulfide 3-11
# B7: TIC+SRS-((tBu)A)-PPI-(Pen)+IPD-OH (peptide)
# peptide: TICSRS[tBuAla]PPI[Pen]IPD-OH
# modifications: disulfide 3-11; N-terminus assumed
# SMILES: CC[C@H](C)[C@H](NC(=O)[C@@H](N)[C@@H](C)O)C(=O)N[C@H]1CSSC(C)(C)[C@@H](C(=O)N[C@H](C(=O)N2CCC[C@H]2C(=O)N[C@@H](CC(=O)O)C(=O)O)[C@@H](C)CC)NC(=O)[C@H]([C@@H](C)CC)NC(=O)[C@@H]2CCCN2C(=O)[C@@H]2CCCN2C(=O)[C@H](CC(C)(C)C)NC(=O)[C@H](CO)NC(=O)[C@H](CCCNC(=N)N)NC(=O)[C@H](CO)NC1=O
# B8: ((N-Me)G)-((N-Me)I)-C+SRS-((tBu)A)-PPI-(Pen)+IP-NH2 (peptide)
# peptide: [Sar][NMeI]CSRS[tBuAla]PPI[Pen]IP-NH2
# modifications: disulfide 3-11; N-terminus assumed
# SMILES: CC[C@H](C)[C@@H]1NC(=O)[C@@H]2CCCN2C(=O)[C@@H]2CCCN2C(=O)[C@H](CC(C)(C)C)NC(=O)[C@H](CO)NC(=O)[C@H](CCCNC(=N)N)NC(=O)[C@H](CO)NC(=O)[C@@H](NC(=O)[C@H]([C@@H](C)CC)N(C)C(=O)CNC)CSSC(C)(C)[C@@H](C(=O)N[C@H](C(=O)N2CCC[C@H]2C(N)=O)[C@@H](C)CC)NC1=O
# B9: ((N-Me)A)-IC+SRSLP-(Oic)-I-(Pen)+I-OH (peptide)
# peptide: [NMeA]ICSRSLP[Oic]I[Pen]I-OH
# modifications: disulfide 3-11; N-terminus assumed
# SMILES: CC[C@H](C)[C@H](NC(=O)[C@H]1NC(=O)[C@H]([C@@H](C)CC)NC(=O)[C@@H]2C[C@@H]3CCCC[C@@H]3N2C(=O)[C@@H]2CCCN2C(=O)[C@H](CC(C)C)NC(=O)[C@H](CO)NC(=O)[C@H](CCCNC(=N)N)NC(=O)[C@H](CO)NC(=O)[C@@H](NC(=O)[C@@H](NC(=O)[C@H](C)NC)[C@@H](C)CC)CSSC1(C)C)C(=O)O
# B10: A-(Abu)-C+SRS-((tBu)A)-PPI-(Pen)+IPD-NH2 (peptide)
# peptide: A[Abu]CSRS[tBuAla]PPI[Pen]IPD-NH2
# modifications: disulfide 3-11; N-terminus assumed
# SMILES: CC[C@H](NC(=O)[C@H](C)N)C(=O)N[C@H]1CSSC(C)(C)[C@@H](C(=O)N[C@H](C(=O)N2CCC[C@H]2C(=O)N[C@@H](CC(=O)O)C(N)=O)[C@@H](C)CC)NC(=O)[C@H]([C@@H](C)CC)NC(=O)[C@@H]2CCCN2C(=O)[C@@H]2CCCN2C(=O)[C@H](CC(C)(C)C)NC(=O)[C@H](CO)NC(=O)[C@H](CCCNC(=N)N)NC(=O)[C@H](CO)NC1=O
# B11: AIC+SRSLP-(Oic)-I-(Pen)+IPE-OH (peptide)
# peptide: AICSRSLP[Oic]I[Pen]IPE-OH
# modifications: disulfide 3-11; N-terminus assumed
# SMILES: CC[C@H](C)[C@H](NC(=O)[C@H](C)N)C(=O)N[C@H]1CSSC(C)(C)[C@@H](C(=O)N[C@H](C(=O)N2CCC[C@H]2C(=O)N[C@@H](CCC(=O)O)C(=O)O)[C@@H](C)CC)NC(=O)[C@H]([C@@H](C)CC)NC(=O)[C@@H]2C[C@@H]3CCCC[C@@H]3N2C(=O)[C@@H]2CCCN2C(=O)[C@H](CC(C)C)NC(=O)[C@H](CO)NC(=O)[C@H](CCCNC(=N)N)NC(=O)[C@H](CO)NC1=O
# B12: ((N-Me)G)-IC+SRSLP-(Oic)-I-(Pen)+IP-(TTDS)-NH2 (peptide)
# peptide: [Sar]ICSRSLP[Oic]I[Pen]IP[TTDS]-NH2
# modifications: disulfide 3-11; N-terminus assumed
# SMILES: CC[C@H](C)[C@H](NC(=O)CNC)C(=O)N[C@H]1CSSC(C)(C)[C@@H](C(=O)N[C@H](C(=O)N2CCC[C@H]2C(=O)NCCCOCCOCCOCCCNC(=O)CCC(N)=O)[C@@H](C)CC)NC(=O)[C@H]([C@@H](C)CC)NC(=O)[C@@H]2C[C@@H]3CCCC[C@@H]3N2C(=O)[C@@H]2CCCN2C(=O)[C@H](CC(C)C)NC(=O)[C@H](CO)NC(=O)[C@H](CCCNC(=N)N)NC(=O)[C@H](CO)NC1=O
# B13: AIC+SRS-((tBu)A)-PPI-(Pen)+IPD-OH (peptide)
# peptide: AICSRS[tBuAla]PPI[Pen]IPD-OH
# modifications: disulfide 3-11; N-terminus assumed
# SMILES: CC[C@H](C)[C@H](NC(=O)[C@H](C)N)C(=O)N[C@H]1CSSC(C)(C)[C@@H](C(=O)N[C@H](C(=O)N2CCC[C@H]2C(=O)N[C@@H](CC(=O)O)C(=O)O)[C@@H](C)CC)NC(=O)[C@H]([C@@H](C)CC)NC(=O)[C@@H]2CCCN2C(=O)[C@@H]2CCCN2C(=O)[C@H](CC(C)(C)C)NC(=O)[C@H](CO)NC(=O)[C@H](CCCNC(=N)N)NC(=O)[C@H](CO)NC1=O
# B14: ((N-Me)G)-IC+SRSLP-(Oic)-I-(Pen)+IP-(PEG5(22 atoms))-NH2 (peptide)
# peptide: [Sar]ICSRSLP[Oic]I[Pen]IP[PEG6]-NH2
# modifications: disulfide 3-11; N-terminus assumed
# SMILES: CC[C@H](C)[C@H](NC(=O)CNC)C(=O)N[C@H]1CSSC(C)(C)[C@@H](C(=O)N[C@H](C(=O)N2CCC[C@H]2C(=O)NCCOCCOCCOCCOCCOCCOCCC(N)=O)[C@@H](C)CC)NC(=O)[C@H]([C@@H](C)CC)NC(=O)[C@@H]2C[C@@H]3CCCC[C@@H]3N2C(=O)[C@@H]2CCCN2C(=O)[C@H](CC(C)C)NC(=O)[C@H](CO)NC(=O)[C@H](CCCNC(=N)N)NC(=O)[C@H](CO)NC1=O
# B15: ((N-Me)G)-IC+SRS-((tBu)A)-PPI-(Pen)+IP-(PEG4(19 atoms))-NH2 (peptide)
# peptide: [Sar]ICSRS[tBuAla]PPI[Pen]IP[PEG5]-NH2
# modifications: disulfide 3-11; N-terminus assumed
# SMILES: CC[C@H](C)[C@H](NC(=O)CNC)C(=O)N[C@H]1CSSC(C)(C)[C@@H](C(=O)N[C@H](C(=O)N2CCC[C@H]2C(=O)NCCOCCOCCOCCOCCOCCC(N)=O)[C@@H](C)CC)NC(=O)[C@H]([C@@H](C)CC)NC(=O)[C@@H]2CCCN2C(=O)[C@@H]2CCCN2C(=O)[C@H](CC(C)(C)C)NC(=O)[C@H](CO)NC(=O)[C@H](CCCNC(=N)N)NC(=O)[C@H](CO)NC1=O
# B16: ((N-Me)A)-IC+SRSLP-(Oic)-I-(Pen)+IP-NH2 (peptide)
# peptide: [NMeA]ICSRSLP[Oic]I[Pen]IP-NH2
# modifications: disulfide 3-11; N-terminus assumed
# SMILES: CC[C@H](C)[C@H](NC(=O)[C@H](C)NC)C(=O)N[C@H]1CSSC(C)(C)[C@@H](C(=O)N[C@H](C(=O)N2CCC[C@H]2C(N)=O)[C@@H](C)CC)NC(=O)[C@H]([C@@H](C)CC)NC(=O)[C@@H]2C[C@@H]3CCCC[C@@H]3N2C(=O)[C@@H]2CCCN2C(=O)[C@H](CC(C)C)NC(=O)[C@H](CO)NC(=O)[C@H](CCCNC(=N)N)NC(=O)[C@H](CO)NC1=O
# Molecular target: T1, recombinant human MASP1 active protease …
# Assay: cell-based or functional assay
row,human MASP1 IC50 [nM],Binder
1,3.5,B1
2,2.13,B2
3,3.6,B3
4,3.6,B4
5,3.5,B5
6,3.7,B6
7,3.7,B7
8,3.7,B8
9,3.4,B9
10,3.7,B10
11,3.5,B11
12,3.4,B12
13,1.2,B13
14,3.5,B14
15,3.6,B15
16,3.4,B16

# Molecular target: recombinant human MASP2 active protease (amino acids 297-686, C-terminal His Tag) (human, UniProt O00187 297-686)
# Assay: cell-based or functional assay
# Sequence of recombinant human MASP2 active protease (amino acids 297-686, C-terminal His Tag) (O00187 other isoform, or with tags, fused parts or gaps limits assumed): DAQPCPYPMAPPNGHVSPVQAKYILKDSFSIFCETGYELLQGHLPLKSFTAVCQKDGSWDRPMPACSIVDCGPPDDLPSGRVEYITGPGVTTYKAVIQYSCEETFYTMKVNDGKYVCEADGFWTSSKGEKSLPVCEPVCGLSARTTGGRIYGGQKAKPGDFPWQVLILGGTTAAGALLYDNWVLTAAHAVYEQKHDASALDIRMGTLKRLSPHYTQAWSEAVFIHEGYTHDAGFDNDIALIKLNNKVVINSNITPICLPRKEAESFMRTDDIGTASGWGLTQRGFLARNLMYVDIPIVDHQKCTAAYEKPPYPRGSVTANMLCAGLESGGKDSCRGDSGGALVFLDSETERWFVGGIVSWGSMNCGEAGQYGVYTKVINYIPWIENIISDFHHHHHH
row,human MASP2 IC50 [nM],Binder
1,190,B1
2,126,B2
3,130,B3
4,74.5,B4
5,98,B5
6,100,B6
7,56,B7
8,590,B8
9,410,B9
10,68,B10
11,140,B11
12,87,B12
13,37,B13
14,90,B14
15,60,B15
16,99,B16
